T1: Dcp1 from S. pombe, residues 1-127, 15N and 5-fluorotryptophan labeled (S. pombe, UniProt Q9P805 1-127, 5-fluorotryptophan at Trp 45 and 107)
T1 construct: Dcp1, S. pombe, UniProt Q9P805, residues 1-127; the tryptophans are replaced with 5-fluorotryptophan; also called 5-fluorotryptophan labeled Dcp1; source: E. coli BL21(DE3) CodonPlus-RIL with 5-fluoroindole added, purified (Ni-NTA, TEV cleavage, second Ni-NTA, SEC)
T1 sequence (looked up): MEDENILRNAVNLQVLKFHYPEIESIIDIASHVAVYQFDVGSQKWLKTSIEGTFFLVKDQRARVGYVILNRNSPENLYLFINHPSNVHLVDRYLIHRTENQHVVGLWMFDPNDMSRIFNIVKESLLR

T2: Dcp2 from S. pombe, regulatory and catalytic domains, residues 1-243, 5-fluorotryptophan labeled (S. pombe, UniProt O13828 1-243, the seven tryptophan residues are replaced with 5-fluorotryptophan)
T2 construct: Dcp2, S. pombe, residues 1-243 (NRD 1-95 and catalytic NUDIX domain 96-243); also used with isoleucine and methionine methyl 13C labeling; also called 5-fluorotryptophan labeled Dcp2-NRD-CTD; source: E. coli BL21(DE3) CodonPlus-RIL with 5-fluoroindole added, purified (Ni-NTA, TEV cleavage, second Ni-NTA, SEC)
T2 sequence (looked up): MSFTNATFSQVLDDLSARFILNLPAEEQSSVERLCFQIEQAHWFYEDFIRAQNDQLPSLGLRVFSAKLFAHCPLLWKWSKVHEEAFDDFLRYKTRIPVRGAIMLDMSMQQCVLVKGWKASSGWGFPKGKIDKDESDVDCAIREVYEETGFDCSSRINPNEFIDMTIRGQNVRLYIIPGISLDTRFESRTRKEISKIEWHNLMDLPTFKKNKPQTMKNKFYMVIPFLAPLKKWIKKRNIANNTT

T3: Dcp2 from S. pombe, regulatory and catalytic domains, residues 1-243 (S. pombe, UniProt O13828 1-243)
T3 construct: Dcp2, S. pombe, residues 1-243 (NRD 1-95 and catalytic NUDIX domain 96-243); also called Dcp2-NRD-CTD; internal ID 223; source: E. coli BL21(DE3) CodonPlus-RIL, purified (Ni-NTA, TEV cleavage, second Ni-NTA, SEC)
T3 sequence (looked up): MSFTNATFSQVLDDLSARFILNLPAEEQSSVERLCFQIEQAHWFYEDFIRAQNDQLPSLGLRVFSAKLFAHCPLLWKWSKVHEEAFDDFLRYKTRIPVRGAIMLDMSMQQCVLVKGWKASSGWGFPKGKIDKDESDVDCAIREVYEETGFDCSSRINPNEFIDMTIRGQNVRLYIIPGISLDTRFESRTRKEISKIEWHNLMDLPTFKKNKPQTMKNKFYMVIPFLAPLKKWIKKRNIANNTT

B1: Dcp1 from S. pombe, residues 1-127 (natural protein, UniProt Q9P805 1-127, looked up)
chain: MEDENILRNAVNLQVLKFHYPEIESIIDIASHVAVYQFDVGSQKWLKTSIEGTFFLVKDQRARVGYVILNRNSPENLYLFINHPSNVHLVDRYLIHRTENQHVVGLWMFDPNDMSRIFNIVKESLLR
notes: Dcp1, S. pombe, UniProt Q9P805, residues 1-127; also called internal ID 48; source: E. coli BL21(DE3) CodonPlus-RIL, purified (Ni-NTA, TEV cleavage, second Ni-NTA, SEC)

How the values were obtained:
Test in all cases: NMR spectra of a prepared complex; Dcp1 and Dcp2 expressed separately, complex prepared with one partner NMR active; 303 K; 125 mM NaCl, 25 mM HEPES, pH 7.3, 1 mM DTT; 100-500 uM protein
Settings in all cases: both partners purified
[1] = biological target: B1
[2] = biological target: T1, Dcp1 from S. pombe, residues 1-127, 15N …
[3] = biological target: T2, Dcp2 from S. pombe, regulatory and …
[4] = biological target: T3, Dcp2 from S. pombe, regulatory and …

| binding result [1] | binding result [2] | binding result [3] | binding result [4] | Binder |
| --- | --- | --- | --- | --- |
| binds | binds |  |  | Dcp2 from S. pombe, N-terminal regulatory domain, residues 1-95 (domain or fragment, UniProt O13828 1-95, looked up, Dcp2, S. pombe, residues 1-95 (N-terminal regulatory domain); Used unlabeled or 15N labeled, depending on the sample; also called Dcp2 NRD; NRD of Dcp2; source: E. coli BL21(DE3) CodonPlus-RIL, purified (Ni-NTA, TEV cleavage, second Ni-NTA, SEC)) MSFTNATFSQVLDDLSARFILNLPAEEQSSVERLCFQIEQAHWFYEDFIRAQNDQLPSLGLRVFSAKLFAHCPLLWKWSKVHEEAFDDFLRYKTR |
| binds |  |  |  | Dcp2 from S. pombe, N-terminal regulatory domain, residues 1-95, 5-fluorotryptophan labeled (domain or fragment, UniProt O13828 1-95, looked up, 5-fluorotryptophan at the three tryptophan residues (W43 among them), Dcp2, S. pombe, residues 1-95 (N-terminal regulatory domain); also called 5-fluorotryptophan labeled Dcp2 NRD; source: E. coli BL21(DE3) CodonPlus-RIL with 5-fluoroindole added, purified (Ni-NTA, TEV cleavage, second Ni-NTA, SEC)) MSFTNATFSQVLDDLSARFILNLPAEEQSSVERLCFQIEQAHWFYEDFIRAQNDQLPSLGLRVFSAKLFAHCPLLWKWSKVHEEAFDDFLRYKTR |
| binds |  |  |  | Dcp2 from S. pombe, residues 1-95, W43A assignment mutant (domain or fragment, UniProt O13828 1-95, looked up, Dcp2, S. pombe, residues 1-95 with W43A; also called Dcp2 NRD W43A; internal ID 1070; source: E. coli BL21(DE3) CodonPlus-RIL, purified (Ni-NTA, TEV cleavage, second Ni-NTA, SEC)) MSFTNATFSQVLDDLSARFILNLPAEEQSSVERLCFQIEQAHAFYEDFIRAQNDQLPSLGLRVFSAKLFAHCPLLWKWSKVHEEAFDDFLRYKTR |
|  |  | binds | binds | B1 |
